For 3 sequences, binding results are on record in PMC6615313.

The series has as its system T1, SigL (sigma54) (Clostridium beijerinckii NCIMB 8052), ORF:07123114.
T1 sequence: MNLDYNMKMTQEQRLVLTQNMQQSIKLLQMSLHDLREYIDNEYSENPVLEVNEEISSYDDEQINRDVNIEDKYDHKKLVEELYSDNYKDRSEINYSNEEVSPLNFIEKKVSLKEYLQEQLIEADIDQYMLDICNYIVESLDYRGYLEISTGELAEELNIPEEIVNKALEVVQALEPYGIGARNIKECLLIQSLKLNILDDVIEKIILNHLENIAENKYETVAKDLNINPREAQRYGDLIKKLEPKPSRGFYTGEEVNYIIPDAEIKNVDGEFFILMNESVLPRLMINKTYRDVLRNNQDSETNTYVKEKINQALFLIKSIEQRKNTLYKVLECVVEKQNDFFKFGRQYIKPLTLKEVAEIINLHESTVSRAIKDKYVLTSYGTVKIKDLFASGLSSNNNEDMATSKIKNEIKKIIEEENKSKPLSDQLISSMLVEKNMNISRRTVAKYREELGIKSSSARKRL
Description: EMSA. To be noted: not stated; EMSA as described previously (ref 21), Cy5-labeled DNA, SigL up to 1500 nM.
Take “AGCCAGTGGCGATAAGGGGGAAAATCTTTAAAAGTGTACAAAAAAAACACATATTTTTCTGATTTATTTTATTTAAAAAGGTAAATAGAATTAATAGTAAACAGTTTAAAAAAATAATATTTAAAGAGTTTAGTAGATTTGGAAAAGGTTTTCGACTTTTGGAAAGAAACTTGGCATCCTAATTGCTCTATAAAAAGGTATGAGGAGGGATTATGACTTATCGCCACTGGCT (double strand) [cotX (cotX-gntT) promoter]”: the binding entry is “binds”.
“AGCCAGTGGCGATAAGCCAGAAAAGAGTAAGATTCTCAAAATAGGACACTAAGTATGTGTCATAATGGCACATAGTGATTTTAAATGTCTTTTTAACAGGTTTCTTGTTTTTGGTATGGCTTTTGCTTATAAAATATAGTGAATATATTAACAGGTATATGTAAATTTTAATATTGCCATACTATTATAAAAAAGGAGAGATAATTCTTATCGCCACTGGCT (double strand) [butA promoter]”: the binding result is “binds”.
For “AGCCAGTGGCGATAAGGGTGTACAAAATATAGACATAAATAAAATTGATATATTTAGGAATTGATTACGAAAACCACAATATATAAGGTTTCATGGAAAAAATATGATTGGCATGCTTATTGCTAATAATAAAATTAACGGGAGTAGTAAGTGAACTAATATATATAACTTAATTTTTCCACAATCTTTAGTGCAATGCTATTTGCTATTTAAGGACTTATCGCCACTGGCT (double strand) [crt (crt-bcd-etfAB-moaC) promoter]”, the binding entry is reported as “binds”.
